Source: patent US20190218261A1, “TARGETED ENHANCED DNA DEMETHYLATION” (The Jackson Laboratory, priority 2016, published 2019)

Experiments:
[1] = system: CpGs of the hMLH1 promoter region; experiment: Bisulfite conversion and sequencing of hMLH1 promoter; type: cell-based, human; details: HEK293T; Casilio-ME days 3-6 post transfection; AzaC treatment for 6 days
Excerpt: Casilio-mediated delivery of demethylation enzymes alters methylation state of targeted genomic locus. Evidence that the shown Casilio-ME-induced activation of hMLH1 transcription is a result of TET1-mediated cytosine demethylation within the targeted promoter region came from DNA sequencing of hMLH1 promoter after bisulfite conversion. Bisulfite treatment of genomic DNA deaminates unmethylated cytosines to produce uracils that are subsequently replicated as thymine. However, methylated cytosines are protected from conversion to uracils, thus allowing one to determine cytosine methylation states at single-nucleotide resolution by direct sequencing.
To assess changes in methylation states of CpG island within hMLH1 promoter region after Casilio-ME-mediated transcription activation, time course experiment were carried out where cells were collected 3, 4, 5, and 6 days post transfection, for analysis of cytosine methylation as well as transcription activation, and protein expression. HEK293T were transfected with Casilio-ME components that includes Ct-fusion PUFa-TET1 effector and a combination of 2 sgRNAs (RNA guides 3 and 7).
Bisulfite conversion and sequencing. Genomic DNAs were extracted using all AllPrep DNA/RNA/Protein Mini Kit according the manufacturer's instructions (Qiagen). […]

[2] = system: 5′-UGUGUGUG-3′ RNA (SEQ ID NO:13); details: cited from earlier work
[3] = system: TetO::tdTomato transgene in HEK293T/TetO::tdTomato cell line; experiment: TetO::tdTomato transgene activation measured by FACS; type: cell-based; details: for transgene activation with higher PBS copy numbers: 15, 20, and 47 copies of PBS
Excerpt: In particular, to test whether appending PBS to the 3′ end of sgRNA affects sgRNA function, a series of modified Tet-targeting (sgTetO) or non-targeting control (sgControl) sgRNA were generated, […] domain-binding sequence (PBS) for PUF (3-2) (also simply referred to as PUFa) [PBS32 or PBSa: SEQ ID NO:8 (5′-UGUAUgUA-3′)], PUF(6-2/7-2) (also simply referred to as PUFb) [PBS6272 or PBSb: SEQ ID NO:9 (5′-UugAUAUA-3′)].
Cells were transfected with dCas9-VP64 with the different sgRNA scaffolds, and were analyzed by fluorescent-activated cell sorting (FACS) two days after transfection (FIG. 1B).
Cell Culture for Experiments. HEK293T cells were cultivated in Dulbecco's modified Eagle's medium (DMEM)(Sigma) with 10% fetal bovine serum (FBS)(Lonza), 4% Glutamax (Gibco), 1% Sodium Pyruvate (Gibco) and penicillin-streptomycin (Gibco). Incubator conditions were 37° C. and 5% CO2. For activation experiments, cells were seeded into 12-well plates at 100,000 cells per well the day before being transfected with 200 ng of dCas9 construct, 100 ng of modified sgRNA and 100 ng of PUF-fusion with Attractene transfection reagent (Qiagen). After transfection, cells were grown for 48 hrs and harvested for either RNA extraction or fluorescent-activated cell sorting (FACS). For dual activation-repression experiments, transfection remained the same, however cells were seeded into 12-well plates at 150,000 cells per well and were grown for 72 hrs before being harvested for FACS. For experiments with OCT4 and SOX2 dual activation-repression, cells were triple-sorted by BFP (for the activator-repressor module PUFb-p65HSF1/BFPKRAB-PUFa), mCherry (for dCas9mCherry) and GFP (for the sgRNA-PBS on vectors co-expressing EGFP) before RNA extraction. […]
Fluorescent-Activated Cell Sorting. […] Samples were analyzed on a FACScalibur flow cytometer using CellQuest Pro software (BD Bioscience). […] were collected in each run.

[4] = system: SOX2 gene expression (SOX2 promoter) in HEK293T cells; experiment: SOX2 expression by quantitative reverse-transcription PCR after Dnmt effector targeting; type: cell-based; details: guides targeting SOX2 promoter, compared to direct dCas9 fusions
Experimental: Establishment of a dCas9-expressing cell line. The day prior to transfection, Lenti-X 293T cells were seeded into 6-well plates at 1.2 million cells per well. The cells were transfected with the supercoiled packaging plasmids (pLP1 (gag/pol), pLP2 (rev), and VSV-G (envelope)) and a dCas9 lentiviral expression plasmid through Lipofectamine 3000 reagent (Invitrogen). At 6 h posttransfection, medium was exchanged for fresh. At 24 h posttransfection, 2 ml of medium containing the lentivirus were collected and centrifuged for 10 minutes at 2,000 rpm to remove cellular debris. The supernatant was filtered utilizing a […] pore filter (Millipore), and the lentivirus was frozen at −80° C. until needed. HEK293T cells, seeded into a 12-well plate at 150,000 cells per well, were transduced with 500 μl of the dCas9 lentivirus in culture medium supplemented with 5 μg/ml polybrene for 12 hours, and subsequently selected with Blasticidin antibiotics on the third day post transduction.
Transfection. HEK293T, and HEK293T/dCas9 cell lines were seeded into 12-well plates at 150,000 cells per well. […] At 3 day post-transfection, the cells were sorted for GFP (sgRNA expression constructs are marked by GFP) with fluorescence-activated cell sorting (FACS) and re-plated into 12 or 24-well plates.
Quantitative reverse-transcription PCR. […]

Nc1ncn([C@@H]2O[C@H](CO)[C@@H](O)[C@H]2O)c(=O)n1 [5′azacytidine, 5-Azacytidine]
frequency of bisulfite conversion (cytosine demethylation) at CpGs of hMLH1 promoter [1]: increased bisulfite conversion frequency on multiple CpG sites within the promoter region

B1: PUF^531: PUF domain with mutations Q867E/Q939E/C935S/Q1011E/C1007S; SEQ ID NO:22 (protein)
chain: GRSRLLEDFRNNRYPNLQLREIAGHIMEFSQDQHGSRFIELKLERATPAERQLVFNEILQAAYQLMVDVFGNYVIQKFFEFGSLEQKLALAERIRGHVLSLALQMYGSRVIEKALEFIPSDQQNEMVRELDGHVLKCVKDQNGNHVVQKCIECVQPQSLQFIIDAFKGQVFALSTHPYGSRVIERILEHCLPDQTLPILEELHQHTEQLVQDQYGNYVIQHVLEHGRPEDKSKIVAEIRGNVLVLSQHKFASNVVEKCVTHASRTERAVLIDEVCTMNDGPHSALYTMMKDQYANYVVQKMIDVAEPGQRKIVMHKIRPHIATLRKYTYGKHILAKLEKYYMKNGVDLG
affinity for new target RNA sequence compared to wild type PUF RNA [2]: very high affinity

B2: PUFa-VP64: NLS-PUFa-VP64 fusion; SEQ ID NO:32 (protein)
chain: MGILPPKKKRKVSRGRSRLLEDFRNNRYPNLQLREIAGHIMEFSQDQHGSRFIQLKLERATPAERQLVFNEILQAAYQLMVDVFGNYVIQKFFEFGSLEQKLALAERIRGHVLSLALQMYGSRVIEKALEFIPSDQQNEMVRELDGHVLKCVKDQNGNHVVQKCIECVQPQSLQFIIDAFKGQVFALSTHPYGCRVIQRILEHCLPDQTLPILEELHQHTEQLVQDQYGNYVIQHVLEHGRPEDKSKIVAEIRGNVLVLSQHKFASNVVEKCVTHASRTERAVLIDEVCTMNDGPHSALYTMMKDQYANYVVQKMIDVAEPGQRKIVMHKIRPHIATLRKYTYGKHILAKLEKYYMKNGVDLGGPAGSGRADALDDFDLDMLGSDALDDFDLDMLGSDALDDFDLDMLGSDALDDFDLDMLYID
transgene activation with higher PBS copy numbers [3]: slightly lower, albeit still substantial transgene activation | activation of TetO::tdTomato with only one PBSa ([3]; sgRNA with one PBSa): not observed

B3: PUFb-VP64: NLS-PUFb-VP64 fusion; SEQ ID NO:33 (protein)
chain: MGILPPKKKRKVSRGRSRLLEDFRNNRYPNLQLREIAGHIMEFSQDQHGSRFIQLKLERATPAERQLVFNEILQAAYQLMVDVFGNYVIQKFFEFGSLEQKLALAERIRGHVLSLALQMYGCRVIQKALEFIPSDQQNEMVRELDGHVLKCVKDQNGNHVVQKCIECVQPQSLQFIIDAFKGQVFALSTHPYGCRVIQRILEHCLPDQTLPILEELHQHTEQLVQDQYGSYVIEHVLEHGRPEDKSKIVAEIRGNVLVLSQHKFANNVVQKCVTHASRTERAVLIDEVCTMNDGPHSALYTMMKDQYANYVVQKMIDVAEPGQRKIVMHKIRPHIATLRKYTYGKHILAKLEKYYMKNGVDLGGPAGSGRADALDDFDLDMLGSDALDDFDLDMLGSDALDDFDLDMLGSDALDDFDLDMLYID
transgene activation with higher PBS copy numbers [3]: slightly lower, albeit still substantial transgene activation

B4: Dnmt3a-PUF: Dnmt3a catalytic region fused to N-terminus of PUFa; SEQ ID NO:65 (protein)
chain: MGPANHDQEFDPPKVYPPVPAEKRKPIRVLSLFDGIATGLLVLKDLGIQVDRYIASEVCEDSITVGMVRHQGKIMYVGDVRSVTQKHIQEWGPFDLVIGGSPCNDLSIVNPARKGLYEGTGRLFFEFYRLLHDARPKEGDDRPFFWLFENVVAMGVSDKRDISRFLESNPVMIDAKEVSAAHRARYFWGNLPGMNRPLASTVNDKLELQECLEHGRIAKFSKVRTITTRSNSIKQGKDQHFPVFMNEKEDILWCTEMERVFGFPVHYTDVSNMSRLARQRLLGRSWSVPVIRHLFAPLKEYFACVIDGGGGSDPKKKRKVDPKKKRKVDPKKKRKVGSTGSRNDGGGGSGGGGSGGGGSGRAGILPPKKKRKVSRGRSRLLEDFRNNRYPNLQLREIAGHIMEFSQDQHGSRFIQLKLERATPAERQLVFNEILQAAYQLMVDVFGNYVIQKFFEFGSLEQKLALAERIRGHVLSLALQMYGSRVIEKALEFIPSDQQNEMVRELDGHVLKCVKDQNGNHVVQKCIECVQPQSLQFIIDAFKGQVFALSTHPYGCRVIQRILEHCLPDQTLPILEELHQHTEQLVQDQYGNYVIQHVLEHGRPEDKSKIVAEIRGNVLVLSQHKFASNVVEKCVTHASRTERAVLIDEVCTMNDGPHSALYTMMKDQYANYVVQKMIDVAEPGQRKIVMHKIRPHIATLRKYTYGKHILAKLEKYYMKNGVDLGDPKKKRKVDPKKKRKVGGRGGGGSGGGGSGGGGSGPA
repression of SOX2 gene expression [4]: more robust repression of SOX2 gene expression compared to direct fusions
